Experimental data as given in US20230407373A1 (priority 2020, published 2023).
Read-outs that look alike come from different tables or passages of the source.

Key:
Type in all cases: binding
gRNA of HCoV-OC43 = conditions: type n_48_v: 48 hours post-infection; for target (spectral count, OC43 Probe I RNP capture): infected cells, unweighted spectral count; for background (spectral count, no-probe control): no-probe control on infected cells
HCoV-OC43 gRNA and sgRNA = conditions: for target (unweighted spectral count, OC43 Probe II capture): type n_36_v, FDR<10%; for target (unweighted spectral count, OC43 Probe II capture) / target (unweighted spectral count): tested against no-probe control; for target (unweighted spectral count): OC43 Probe II, infected cells; for target (unweighted spectral count, OC43 Probe II) / background (unweighted spectral count, no-probe control): type n_48_v, 48 hpi; for target (unweighted spectral count, OC43 Probe II): OC43 Probe II capture on infected cells; for background (unweighted spectral count, no-probe control): no-probe control on infected cells
[1] = tested on: SARS-CoV-2 gRNA and sgRNAs; conditions: for target (unweighted spectral count in RNP capture): Probe II capture, LC-MS/MS LFQ; for background (unweighted spectral count in control): no-probe control pull-down, used as background for Probe II; for target (unweighted spectral count of the protein in the RNP capture experiment): LC-MS/MS label-free quantification, probe pool not given; for back-ground (unweighted spectral count of the protein in the control experiment): protein background of the control (e.g. no-probe) experiment
SARS-CoV-2 gRNA = conditions: […]; LC-MS/MS; Probe I sample (first 199 lines of Table 2)

Molecule	target (spectral count, OC43 Probe I RNP capture) (gRNA of HCoV-OC43)	background (spectral count, no-probe control) (gRNA of HCoV-OC43)	target (unweighted spectral count, OC43 Probe II capture) (HCoV-OC43 gRNA and sgRNA; 36 hpi)	target (unweighted spectral count in RNP capture) [1]	background (unweighted spectral count in control) [1]	target (unweighted spectral count) (HCoV-OC43 gRNA and sgRNA; 12 hpi (type n_12_v))	target (unweighted spectral count) (HCoV-OC43 gRNA and sgRNA; 24 hpi (type n_24_v))	target (unweighted spectral count, OC43 Probe II) (HCoV-OC43 gRNA and sgRNA)	background (unweighted spectral count, no-probe control) (HCoV-OC43 gRNA and sgRNA)	target (unweighted spectral count of the protein in the RNP capture experiment) [1]	back-ground (unweighted spectral count of the protein in the control experiment) [1]	target (unweighted spectral count of the protein in the RNP capture) (SARS-CoV-2 gRNA)	target (spectral count) (HCoV-OC43 gRNA and sgRNA; type s_36_m, HCoV-OC43-infected HCT-8 cells, 36 hpi, Probe II)	background (spectral count) (HCoV-OC43 gRNA and sgRNA; type s_36_m, uninfected-probe control, 36 hpi, Probe II)
UBAP2L (protein, UniProt Q14157 1-1087, looked up) Ubiquitin-associated protein …: MMTSVGTNRARGNWEQPQNQNQTQHKQRPQATAEQIRLAQMISDHNDADFEEKVKQLIDITGKNQDECVIALHDCNGDVNRAINVLLEGNPDTHSWEMVGKKKGVSGQKDGGQTESNEEGKENRDRDRDYSRRRGGPPRRGRGASRGREFRGQENGLDGTKSGGPSGRGTERGRRGRGRGRGGSGRRGGRFSAQGMGTFNPADYAEPANTDDNYGNSSGNTWNNTGHFEPDDGTSAWRTATEEWGTEDWNEDLSETKIFTASNVSSVPLPAENVTITAGQRIDLAVLLGKTPSTMENDSSNLDPSQAPSLAQPLVFSNSKQTAISQPASGNTFSHHSMVSMLGKGFGDVGEAKGGSTTGSQFLEQFKTAQALAQLAAQHSQSGSTTTSSWDMGSTTQSPSLVQYDLKNPSDSAVHSPFTKRQAFTPSSTMMEVFLQEKSPAVATSTAAPPPPSSPLPSKSTSAPQMSPGSSDNQSSSPQPAQQKLKQQKKKASLTSKIPALAVEMPGSADISGLNLQFGALQFGSEPVLSDYESTPTTSASSSQAPSSLYTSTASESSSTISSNQSQESGYQSGPIQSTTYTSQNNAQGPLYEQRSTQTRRYPSSISSSPQKDLTQAKNGFSSVQATQLQTTQSVEGATGSAVKSDSPSTSSIPPLNETVSAASLLTTTNQHSSSLGGLSHSEEIPNTTTTQHSSTLSTQQNTLSSSTSSGRTSTSTLLHTSVESEANLHSSSSTFSTTSSTVSAPPPVVSVSSSLNSGSSLGLSLGSNSTVTASTRSSVATTSGKAPPNLPPGVPPLLPNPYIMAPGLLHAYPPQVYGYDDLQMLQTRFPLDYYSIPFPTPTTPLTGRDGSLASNPYSGDLTKFGRGDASSPAPATTLAQPQQNQTQTHHTTQQTFLNPALPPGYSYTSLPYYTGVPGLPSTFQYGPAVFPVAPTSSKQHGVNVSVNASATPFQQPSGYGSHGYNTGVSVTSSNTGVPDISGSVYSKTQQSFEKQGFHSGTPAASFNLPSALGSGGPINPATAAAYPPAPFMHILTPHQQPHSQILHHHLQQDGQTGSGQRSQTSSIPQKPQTNKSAYNSYSWGAN	6	1	5	17	1									
HNRNPC (protein, UniProt P07910 2-306, looked up) Heterogeneous nuclear …: ASNVTNKTDPRSMNSRVFIGNLNTLVVKKSDVEAIFSKYGKIVGCSVHKGFAFVQYVNERNARAAVAGEDGRMIAGQVLDINLAAEPKVNRGKAGVKRSAAEMYGSVTEHPSPSPLLSSSFDLDYDFQRDYYDRMYSYPARVPPPPPIARAVVPSKRQRVSGNTSRRGKSGFNSKSGQRGSSKSGKLKGDDLQAIKKELTQIKQKVDSLLENLEKIEKEQSKQAVEMKNDKSEEEQSSSSVKKDETNVKMESEGGADDSAEEGDLLDDDDNEDRGDDQLELIKDDEKEAEEGEDDRDSANGEDDS		19	69	75	2	30	40	88	19					
PURB (protein, UniProt Q96QR8 2-312, looked up) Transcriptional regulator …: ADGDSGSERGGGGGPCGFQPASRGGGEQETQELASKRLDIQNKRFYLDVKQNAKGRFLKIAEVGAGGSKSRLTLSMAVAAEFRDSLGDFIEHYAQLGPSSPEQLAAGAEEGGGPRRALKSEFLVRENRKYYLDLKENQRGRFLRIRQTVNRGGGGFGAGPGPGGLQSGQTIALPAQGLIEFRDALAKLIDDYGGEDDELAGGPGGGAGGPGGGLYGELPEGTSITVDSKRFFFDVGCNKYGVFLRVSEVKPSYRNAITVPFKAWGKFGGAFCRYADEMKEIQERQRDKLYERRGGGSGGGEESEGEEVDED	5	1						5	1	5	1			
CHTOP (protein, UniProt Q9Y3Y2 2-248, looked up) Chromatin target of PRMT1 …: AAQSAPKVVLKSTTKMSLNERFTNMLKNKQPTPVNIRASMQQQQQLASARNRRLAQQMENRPSVQAALKLKQSLKQRLGKSNIQARLGRPIGALARGAIGGRGLPIIQRGLPRGGLRGGRATRTLLRGGMSLRGQNLLRGGRAVAPRMGLRRGGVRGRGGPGRGGLGRGAMGRGGIGGRGRGMIGRGRGGFGGRGRGRGRGRGALARPVLTKEQLDNQLDAYMSKTKGHLDAELDAYMAQTDPETND	6	1	5					6	1	5	1			
RPUSD3 (protein, UniProt Q6P087 26-351, looked up) Mitochondrial mRNA …: LGVRPVPEDAGFGTEARHQRQPRGSCQRSGPLGDQPFAGLLPKNLSREELVDALRAAVVDRKGPLVTLNKPQGLPVTGKPGELTLFSVLPELSQSLGLREQELQVVRASGKESSGLVLLSSCPQTASRLQKYFTHARRAQRPTATYCAVTDGIPAASEGKIQAALKLEHIDGVNLTVPVKAPSRKDILEGVKKTLSHFRVVATGSGCALVQLQPLTVFSSQLQVHMVLQLCPVLGDHMYSARVGTVLGQRFLLPAENNKPQRQVLDEALLRRLHLTPSQAAQLPLHLHLHRLLLPGTRARDTPVELLAPLPPYFSRTLQCLGLRLQ												7		
DHX30 (protein, UniProt Q7L2E3 1-1194, looked up) ATP-dependent RNA helicase …: MFSLDSFRKDRAQHRQRQCKLPPPRLPPMCVNPTPGGTISRASRDLLKEFPQPKNLLNSVIGRALGISHAKDKLVYVHTNGPKKKKVTLHIKWPKSVEVEGYGSKKIDAERQAAAAACQLFKGWGLLGPRNELFDAAKYRVLADRFGSPADSWWRPEPTMPPTSWRQLNPESIRPGGPGGLSRSLGREEEEDEEEELEEGTIDVTDFLSMTQQDSHAPLRDSRGSSFEMTDDDSAIRALTQFPLPKNLLAKVIQIATSSSTAKNLMQFHTVGTKTKLSTLTLLWPCPMTFVAKGRRKAEAENKAAALACKKLKSLGLVDRNNEPLTHAMYNLASLRELGETQRRPCTIQVPEPILRKIETFLNHYPVESSWIAPELRLQSDDILPLGKDSGPLSDPITGKPYVPLLEAEEVRLSQSLLELWRRRGPVWQEAPQLPVDPHRDTILNAIEQHPVVVISGDTGCGKTTRIPQLLLERYVTEGRGARCNVIITQPRRISAVSVAQRVSHELGPSLRRNVGFQVRLESKPPSRGGALLFCTVGILLRKLQSNPSLEGVSHVIVDEVHERDVNTDFLLILLKGLQRLNPALRLVLMSATGDNERFSRYFGGCPVIKVPGFMYPVKEHYLEDILAKLGKHQYLHRHRHHESEDECALDLDLVTDLVLHIDARGEPGGILCFLPGWQEIKGVQQRLQEALGMHESKYLILPVHSNIPMMDQKAIFQQPPVGVRKIVLATNIAETSITINDIVHVVDSGLHKEERYDLKTKVSCLETVWVSRANVIQRRGRAGRCQSGFAYHLFPRSRLEKMVPFQVPEILRTPLENLVLQAKIHMPEKTAVEFLSKAVDSPNIKAVDEAVILLQEIGVLDQREYLTTLGQRLAHISTDPRLAKAIVLAAIFRCLHPLLVVVSCLTRDPFSSSLQNRAEVDKVKALLSHDSGSDHLAFVRAVAGWEEVLRWQDRSSRENYLEENLLYAPSLRFIHGLIKQFSENIYEAFLVGKPSDCTLASAQCNEYSEEEELVKGVLMAGLYPNLIQVRQGKVTRQGKFKPNSVTYRTKSGNILLHKSTINREATRLRSRWLTYFMAVKSNGSVFVRDSSQVHPLAVLLLTDGDVHIRDDGRRATISLSDSDLLRLEGDSRTVRLLKELRRALGRMVERSLRSELAALPPSVQEEHGQLLALLAELLRGPCGSFDVRKTADD												13		
SYNCRIP: host protein, UniProt O60506 (protein, UniProt O60506 2-623, looked up) Heterogeneous nuclear …: ATEHVNGNGTEEPMDTTSAVIHSENFQTLLDAGLPQKVAEKLDEIYVAGLVAHSDLDERAIEALKEFNEDGALAVLQQFKDSDLSHVQNKSAFLCGVMKTYRQREKQGTKVADSSKGPDEAKIKALLERTGYTLDVTTGQRKYGGPPPDSVYSGQQPSVGTEIFVGKIPRDLFEDELVPLFEKAGPIWDLRLMMDPLTGLNRGYAFVTFCTKEAAQEAVKLYNNHEIRSGKHIGVCISVANNRLFVGSIPKSKTKEQILEEFSKVTEGLTDVILYHQPDDKKKNRGFCFLEYEDHKTAAQARRRLMSGKVKVWGNVGTVEWADPIEDPDPEVMAKVKVLFVRNLANTVTEEILEKAFSQFGKLERVKKLKDYAFIHFDERDGAVKAMEEMNGKDLEGENIEIVFAKPPDQKRKERKAQRQAAKNQMYDDYYYYGPPHMPPPTRGRGRGGRGGYGYPPDYYGYEDYYDYYGYDYHNYRGGYEDPYYGYEDFQVGARGRGGRGARGAAPSRGRGAAPPRGRAGYSQRGGPGSARGVRGARGGAQQQRGRGVRGARGGRGGNVGGKRKADGYNQPDSKRRQTNNQNWGSQPIAQQPLQGGDHSGNYGYKSENQEFYQDTFGQQWK	88	7	97	159	1	33	55	87	7				97	23
